Test results from patent US20190352426A1, “PLAZOMICIN ANTIBODIES AND METHODS OF USE” (Achaogen, Inc., priority 2016, published 2019).
Numbering of substitutions follows the chain as printed.

B1: MC335: murine monoclonal anti-plazomicin antibody; heavy chain variable SEQ ID NO 66, light chain variable SEQ ID NO 70 (antibody, listed as Mus musculus, V domains shown)
VH: AGQLKESGPGLVKPSQSLSLTCTVTGSSITSDYAWNWIRQFPGNKLEWMGYISQSGSTSYNPSLKSRISITRDTSKNQFFLQLNSVTTEDTATYYCTGNSYTMDYWGQGTSVTVSS
VL: DIVMTQSPKFLLVSAGDRVTITCKASQSVSNDVAWYQQKPGQSPKLLISYASNRYTGVPDRFTGSGYGTDFTFTITTVQAEDLAVYFCQQDYSSPWTFGGGTKLEIK
B2: MC331: murine monoclonal anti-plazomicin antibody; heavy chain variable SEQ ID NO 42, light chain variable SEQ ID NO 46 (antibody, listed as Mus musculus, V domains shown)
VH: QVQLQQSGAELAKPGASVKMSCKASGNTFTSYWMHWIKQRPGQGLEWIGYIDPSTGYTEYNQKFKDRATLTADKSSNTAYMQLNSLTSEDSAVYYCTKSGKWDDYWGQGTTLTVSS
VL: B1 VL with D1S, S7T, S30T, S49C, T76S, Y92H, S93T, W96F
B3: MC337: murine monoclonal anti-plazomicin antibody; heavy chain variable SEQ ID NO 82, light chain variable SEQ ID NO 86 (antibody, listed as Mus musculus, V domains shown)
VH: QVQLQQPGPELVKPGASVKMSCKASGYTFTSYVIHWVKQKPGQGLEWIGYINPFNDGTKYNEKFKGKATLTSDKSSSTAYMELSSLTSEDSAVYYCEGVGSSGSDYWGQGTTLTVSS
VL: B1 VL with S7T, S30R, T76S, V85I, W96Y
B4: MC329: murine monoclonal anti-plazomicin antibody from hybridoma MC329; heavy chain variable SEQ ID NO 22, light chain SEQ ID NO 26, 30 (antibody, listed as Mus musculus, V domains shown)
VH: SDVQLQESGPGLVKPSQSLSLTCTVTGYSITTNYAWNWIRQFPGHKLEWMGYITSSGRTSYNPPLKSRISITRDTSRSQFFLRLNSVTTEDTATYFCTHTTAYLDYWGQGTTLTVSS
VL 1: B1 VL with D1S, S7T, T72A, T76N, V85F, W96Y
VL 2: DIKMTQSPSSMYASLGERVTITCKASQDIKSYLSWYQQIPWKSPKTLIYYATSLADGVPSRFSGSGSGQDYSLTISSLESDDTATYYCLQHGESPLTFGAGTKLELK
B5: MC336: murine monoclonal anti-plazomicin antibody; heavy chain variable SEQ ID NO 74, light chain variable SEQ ID NO 78 (antibody, listed as Mus musculus, V domains shown)
VH: B1 VH with A1Q, G2M, K5Q, S27D, Q54Y, T71S, T88I
VL: B1 VL with D1S, S7T, K45N, T76S, S93I
B6: MC330: murine monoclonal anti-plazomicin antibody; heavy chain variable SEQ ID NO 34, light chain variable SEQ ID NO 38 (antibody, listed as Mus musculus, V domains shown)
VH: SDVQLQESGPGLVTPSQSLSLTCTVTGYSITSAYAWNWIRQFPGNKLEWLGYINSSGSTSYHPSLKGRISITRDTSKNQFFLQLNSVTTEDTATYYCTHTTSYFDYWGQGTTLTVSS
VL: B1 VL with D1S, S7T, L12I, T74A, W96Y, L104V
B7: MC339: murine monoclonal anti-plazomicin antibody; heavy chain variable SEQ ID NO 90, light chain variable SEQ ID NO 94 (antibody, listed as Mus musculus, V domains shown)
VH: QVQLVQSGPELVKPGASVKVSCKASGFSFTDYNMYWVKQSHGKSLEWIGYIDPYNGGTSYNQKFKGKATLTFDKSSSTAFMHLNSLTSEDSAVYYCASAGNYDDYWGQGTTLTVSS
VL: B1 VL with S7T, K45T, S49Y, T76S, S93T, W96Y
B8: MC340: murine monoclonal anti-plazomicin antibody; heavy chain variable SEQ ID NO 98, light chain variable SEQ ID NO 102 (antibody, listed as Mus musculus, V domains shown)
VH: QVTLKESGGGLVQPGGSMKISCVVSGLTFRNYWMSWVRQSPEKGLEWVAEIRLKSDNYATHYAESVKGKFTISRDDSKSRLYLQMNSLRAEDTGIYYCTVYGKDFDYWGQGTTLTVSS
VL: B1 VL with I2V, S7T, T76S
B9: MC334: murine monoclonal anti-plazomicin antibody; heavy chain variable SEQ ID NO 58, light chain variable SEQ ID NO 62 (antibody, listed as Mus musculus, V domains shown)
VH: QVQLQQSGAELMKPGASVKISCKATGYKFSRYWIEWVKESPGHGLEWIGEIFPGSDSTDYNEKFKGKATLTADSSSNTAYMQLSSLTSEDSAVYYCARDGGGLDEFAYWGQGTPVIVSA
VL: DVVVTQIPLSLSVSFGDQVSISCRSSQSLTNSYGYTYLSWYLHKPGQSPQLLIYGISNRFSGVPDRFSGSGSGTDFTLKISTIKPEDLGMYYCLQGTHQPYTFGGGTKLEIR
B10: MC332: murine monoclonal anti-plazomicin antibody; heavy chain variable SEQ ID NO 50, light chain variable SEQ ID NO 54 (antibody, listed as Mus musculus, V domains shown)
VH: B9 VH
VL: B9 VL with I7N

Assay: competitive ELISA on BSA-bromo-plazomicin coated plates, free plazomicin
Format: binding
Details: free plazomicin 0.013-270 μg/ml incubated with antibody at 0.05 nM, then added to BSA-bromo-plazomicin-coated ELISA plates
Experimental: (§1) The purified antibodies were then analyzed for binding to BSA-plazomicin by ELISA (the tested concentrations of antibodies ranged from 0.0001 nM to 100 nM). (FIG. 1A) and competitive ELISA (FIG. 1B) on BSA-bromo-plazomicin coated ELISA plates. For competitive ELISAs, free aminoglycosides (plazomicin, gentamicin, amikacin, and sisomicin) at concentrations; 270 μg/ml, 90 μg/ml 30 μg/ml, 10 μg/ml, 3.3 μg/ml, 1.1 μg/ml, 0.4 μg/ml, 0.12 μg/ml, 0.04 μg/ml and 0.013 μg/ml were incubated with one of 10 purified monoclonal antibodies derived from the cell cultures described above; MC329, MC330, MC331, MC332, MC334, […], […], MC337, MC339, MC340 at 0.05 nM concentration (FIG. 1B). The antibody/aminoglycoside solutions were then added to BSA-bromo-plazomicin-coated ELISA plates. Plates were washed to remove unbound antibody, and IC50 values (μg/mL) were determined for each aminoglycoside and are shown below in Table 5.

| Antibiotic IC50 Values for Aminoglycosides: Plazomicin [µg/mL] | Molecule |
| --- | --- |
| 0.59 | B1 |
| 0.43 | B2 |
| 0.06 | B3 |
| 0.43 | B4 |
| 0.25 | B5 |
| 0.02 | B6 |
| 0.12 | B7 |
| 19.0 | B8 |
| 0.72 | B9 |
| 0.94 | B10 |

Assay: competitive ELISA on BSA-bromo-plazomicin coated plates, free gentamicin
Format: binding
Details: free gentamicin 0.013-270 μg/ml incubated with antibody at 0.05 nM, then added to BSA-bromo-plazomicin-coated ELISA plates
Experimental: as §1

| Antibiotic IC50 Values for Aminoglycosides: Gentamicin [µg/mL] | Molecule |
| --- | --- |
| 214.4 | B2 |
| 107.6 | B3 |
| 107.0 | B4 |
| ~106.1 | B5 |
| 92.0 | B6 |
| ~101.7 | B7 |

Assay: competitive ELISA on BSA-bromo-plazomicin coated plates, free sisomicin
Format: binding
Details: free sisomicin 0.013-270 μg/ml incubated with antibody at 0.05 nM, then added to BSA-bromo-plazomicin-coated ELISA plates
Experimental: as §1

| Antibiotic IC50 Values for Aminoglycosides: Sisomicin [µg/mL] | Molecule |
| --- | --- |
| 69.0 | B1 |
| 83.0 | B2 |
| 16.1 | B3 |
| 83.0 | B4 |
| 37.6 | B5 |
| 9.9 | B6 |
| 24.4 | B7 |
| 153 | B8 |
